Test results as given in patent publication US6500417 (DSM N V, dated 2002).
Positions count from the first letter of the chain named.

B1: hIL-3 deletion mutant 932 (deletion 1-14) (ligand)
chain: NCSNMIDEIITHLKQPPLPLLDFNNLNGEDQDILMENNLRRPNLEAFNRAVKSLQNASAIESILKNLLPCLPLATAAPTRHPIHIKDGDWNEFRRKLTFYLKTLENAQAQQTTLSLAIF
notes: not shown: heterologous N-terminal leader of the E. coli fusion (pGB/IL-336: 12 aa; pGB/IL-339: 15 aa)
B2: hIL-3 deletion mutant 939 (deletion 120-130) (ligand)
chain: APMTQTTPLKTSWVNCSNMIDEIITHLKQPPLPLLDFNNLNGEDQDILMENNLRRPNLEAFNRAVKSLQNASAIESILKNLLPCLPLATAAPTRHPIHIKDGDWNEFRRKLTFYLKTLEAIF
notes: as for B1
B3: hIL-3 double deletion mutant 9329 (deletions 1-14/120-130) (ligand)
chain: NCSNMIDEIITHLKQPPLPLLDFNNLNGEDQDILMENNLRRPNLEAFNRAVKSLQNASAIESILKNLLPCLPLATAAPTRHPIHIKDGDWNEFRRKLTFYLKTLEAIF
notes: not shown: heterologous N-terminal leader of the E. coli fusion, rebuilt with oligonucleotides 1424/1425
B4: hIL-3 substitution mutant 1480 (Asp36→Arg36) (ligand)
chain: APMTQTTPLKTSWVNCSNMIDEIITHLKQPPLPLLRFNNLNGEDQDILMENNLRRPNLEAFNRAVKSLQNASAIESILKNLLPCLPLATAAPTRHPIHIKDGDWNEFRRKLTFYLKTLENAQAQQTTLSLAIF
notes: also called 36D→R; not shown: heterologous N-terminal leader of the E. coli fusion (pGB/IL-336: 12 aa; pGB/IL-339: 15 aa)
B5: hIL-3 substitution mutant 1487A (Glu75→Gly75) (ligand)
chain: B4 chain with R36D, E75G
notes: also called 75E → G; not shown: heterologous N-terminal leader of the E. coli fusion (pGB/IL-336: 12 aa; pGB/IL-339: 15 aa)
B6: hIL-3 substitution mutant 1487B (Glu75→Arg75) (ligand)
chain: B4 chain with R36D, E75R
notes: also called 75E → R; not shown: heterologous N-terminal leader of the E. coli fusion (pGB/IL-336: 12 aa; pGB/IL-339: 15 aa)
B7: hIL-3 substitution mutant 1490 (His98Lys100Asp101→Glu98Asp100Gln101) (ligand)
chain: B4 chain with R36D, H98E, K100D, D101Q
notes: also called 98HIKD → EIKQ; not shown: heterologous N-terminal leader of the E. coli fusion (pGB/IL-336: 12 aa; pGB/IL-339: 15 aa)
B8: hIL-3 substitution mutant 1482 (Asp46→Arg46) (ligand)
chain: B4 chain with R36D, D46R
notes: also called 46D→R; not shown: heterologous N-terminal leader of the E. coli fusion (pGB/IL-336: 12 aa; pGB/IL-339: 15 aa)
B9: hIL-3 substitution mutant 1485 (Glu59→Lys59) (ligand)
chain: B4 chain with R36D, E59K
notes: also called 59E → K; not shown: heterologous N-terminal leader of the E. coli fusion (pGB/IL-336: 12 aa; pGB/IL-339: 15 aa)
B10: hIL-3 substitution mutant 1491 (Glu106→Lys106) (ligand)
chain: B4 chain with R36D, E106K
notes: also called 106E → K; not shown: heterologous N-terminal leader of the E. coli fusion (pGB/IL-336: 12 aa; pGB/IL-339: 15 aa)
B11: hIL-3 deletion mutant 934 (deletion 47-54) (ligand)
chain: APMTQTTPLKTSWVNCSNMIDEIITHLKQPPLPLLDFNNLNGEDQDRPNLEAFNRAVKSLQNASAIESILKNLLPCLPLATAAPTRHPIHIKDGDWNEFRRKLTFYLKTLENAQAQQTTLSLAIF
notes: as for B1
B12: hIL-3 deletion mutant 813 (deletion 66-80) (ligand)
chain: APMTQTTPLKTSWVNCSNMIDEIITHLKQPPLPLLDFNNLNGEDQDILMENNLRRPNLEAFNRAVLLPCLPLATAAPTRHPIHIKDGDWNEFRRKLTFYLKTLENAQAQQTTLSLAIF
notes: also called 4813; not shown: heterologous N-terminal leader of the E. coli fusion (pGB/IL-336: 12 aa; pGB/IL-339: 15 aa)
B13: hIL-3 deletion mutant 821 (deletion 94-102) (ligand)
chain: APMTQTTPLKTSWVNCSNMIDEIITHLKQPPLPLLDFNNLNGEDQDILMENNLRRPNLEAFNRAVKSLQNASAIESILKNLLPCLPLATAAPTDWNEFRRKLTFYLKTLENAQAQQTTLSLAIF
notes: as for B1
B14: hIL-3 deletion mutant 938 (deletion 103-111) (ligand)
chain: B13 chain with D94R, W95H, N96P, E97I, F98H, R99I, R100K, K101D, L102G
notes: as for B1
B15: hIL-3 deletion mutant 935 (deletion 60-70) (ligand)
chain: APMTQTTPLKTSWVNCSNMIDEIITHLKQPPLPLLDFNNLNGEDQDILMENNLRRPNLEASAIESILKNLLPCLPLATAAPTRHPIHIKDGDWNEFRRKLTFYLKTLENAQAQQTTLSLAIF
notes: as for B1
B16: hIL-3 deletion mutant 937 (deletion 89-95) (ligand)
chain: APMTQTTPLKTSWVNCSNMIDEIITHLKQPPLPLLDFNNLNGEDQDILMENNLRRPNLEAFNRAVKSLQNASAIESILKNLLPCLPLAPIHIKDGDWNEFRRKLTFYLKTLENAQAQQTTLSLAIF
notes: as for B1
B17: hIL-3 C-terminal deletion mutant 1455 (lacking amino acids 130-133) (ligand)
chain: APMTQTTPLKTSWVNCSNMIDEIITHLKQPPLPLLDFNNLNGEDQDILMENNLRRPNLEAFNRAVKSLQNASAIESILKNLLPCLPLATAAPTRHPIHIKDGDWNEFRRKLTFYLKTLENAQAQQTTLS

target: T1, IL-3 receptor (human, UniProt P26951 19-378; P32927 17-897); experiment: competition with radiolabeled hIL-3 for binding to cells, relative to reference IL-3
T1 construct: whole, on cells; also called ILK3 receptor
T1 sequence (P26951 19-378, chain 1 of 2): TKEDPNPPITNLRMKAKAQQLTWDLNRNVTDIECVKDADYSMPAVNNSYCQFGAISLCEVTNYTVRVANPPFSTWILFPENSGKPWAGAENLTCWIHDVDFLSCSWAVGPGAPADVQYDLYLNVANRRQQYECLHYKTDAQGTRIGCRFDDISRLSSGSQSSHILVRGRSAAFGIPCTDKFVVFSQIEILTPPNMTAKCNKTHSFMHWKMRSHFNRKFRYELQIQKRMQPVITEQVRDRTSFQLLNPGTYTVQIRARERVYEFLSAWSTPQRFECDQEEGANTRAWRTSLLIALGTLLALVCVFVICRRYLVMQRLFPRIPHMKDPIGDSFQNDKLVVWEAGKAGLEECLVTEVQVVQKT
T1 sequence (P32927 17-897, chain 2 of 2): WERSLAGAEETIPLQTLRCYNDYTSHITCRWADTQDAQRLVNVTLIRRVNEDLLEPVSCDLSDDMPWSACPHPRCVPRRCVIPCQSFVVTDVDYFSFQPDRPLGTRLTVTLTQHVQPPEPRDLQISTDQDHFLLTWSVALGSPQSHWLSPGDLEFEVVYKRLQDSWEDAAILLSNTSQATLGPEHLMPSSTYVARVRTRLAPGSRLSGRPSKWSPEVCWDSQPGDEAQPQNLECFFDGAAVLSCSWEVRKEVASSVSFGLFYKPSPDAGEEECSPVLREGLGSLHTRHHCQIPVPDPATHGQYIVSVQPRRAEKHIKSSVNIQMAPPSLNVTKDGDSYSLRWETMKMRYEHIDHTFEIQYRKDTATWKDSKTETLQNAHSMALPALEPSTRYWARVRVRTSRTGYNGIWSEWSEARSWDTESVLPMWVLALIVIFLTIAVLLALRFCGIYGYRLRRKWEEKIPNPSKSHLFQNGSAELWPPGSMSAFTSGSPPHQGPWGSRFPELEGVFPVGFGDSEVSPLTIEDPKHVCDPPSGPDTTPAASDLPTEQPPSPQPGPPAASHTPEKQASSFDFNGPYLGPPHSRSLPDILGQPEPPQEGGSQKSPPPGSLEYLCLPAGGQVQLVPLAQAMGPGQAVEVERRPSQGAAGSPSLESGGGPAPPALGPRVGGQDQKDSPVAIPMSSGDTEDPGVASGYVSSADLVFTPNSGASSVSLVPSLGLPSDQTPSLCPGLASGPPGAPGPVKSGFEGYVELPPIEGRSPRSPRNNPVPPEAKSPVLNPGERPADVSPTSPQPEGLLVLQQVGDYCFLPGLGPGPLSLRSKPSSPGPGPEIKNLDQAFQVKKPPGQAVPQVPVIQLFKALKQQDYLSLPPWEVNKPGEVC
Experimental: (§1) An ILK3 receptor binding assay was performed with purified recombinant hIL-3 (see EPA 0390252) was radiolabeled with the Bolton-Hunter reagent (as described by Budel et al., Blood 74 (1989) 565–571). The specific activity was estimated at 80,000 cpm/ng of IL-3. As target, either donor leukocytes, patient AML cells, or MV4-11 (ATCC: CRL-9591) cells were used. Cells were washed in Hanks Balanced Salt solution and suspended in Alpha-MEM plus 1% BSA. Usually, 3–10×10⁶ cells were incubated with 200–300 pM of radiolabeled IL-3 and various concentrations of unlabeled mutant protein in a total volume of 200 µl for 1 hr at 37° C. Cell-bound labeled IL-3 was centrifuged for 10 min at 1000×g at 4° C. through a 0.5 ml cushion of bovine calf serum in an Eppendorf tube (Budel et al., 1989). The tubes were frozen in liquid nitrogen and the tips cut off for counting in a Packard gamma counter. Competition binding was determined relative to the reference preparation. […] Radiolabeled IL-3 binding to patient AML blasts is competed with unlabeled IL-3 protein (reference preparation). Due to the low number of receptors (less than 200) on the target cells, data for competition mostly varied by one order of magnitude.

Row | relative antagonistic potential (relative receptor binding activity / relative biological activity) | Molecule
1 | 2.8 | B1
2 | 1.8 | B2
3 | 2 | B3

target: T1, IL-3 receptor; experiment: competition with radiolabeled hIL-3 for binding to cells, relative to reference IL-3; done once
Experimental: as §1
[1]Deletion between amino acid numbers of mature human IL-3 is indicated. Substitutions of amino acids are indicated in single letter code. [2]Median specific biological activity is expressed relative to the reference IL-3 preparations. [3]Antagonistic potential is represented as relative receptor binding activity divided by relative biological activity. The range is presented between brackets. […] Muteins were diluted in medium and tested for biological activity. Receptor binding experiments were performed once. †Mutein protein concentration was too low for densitometric scanning and was estimated from gels and western blots. ¤Mutant proteins were expressed in Bacillus and lack a leader polypeptide sequence.

Row | relative antagonistic potential (relative receptor binding activity / relative biological activity) | Molecule
4 | 12 | B4
5 | 3 | B5
6 | 3 | B6
7 | 5 | B7
8 | 0.6 | B8
9 | 3 | B9
10 | 6 | B10

target: T1, IL-3 receptor; experiment: cell-based or functional assay

Row | REL. SPEC. BIOLOGICAL ACTIVITY (DNA synthesis of AML193 cells) | Molecule
11 | 7.3e-05 relative to reference IL-3 | B11
12 | 2.4e-05 relative to reference IL-3 | B12
13 | 0.71 relative to reference IL-3 | B1
14 | 1.8e-05 relative to reference IL-3 | B13
15 | 6.6e-05 relative to reference IL-3 | B14
16 | 2 relative to reference IL-3 | B2
17 | 0.0031 relative to reference IL-3 | B4
18 | 0.015 relative to reference IL-3 | B5
19 | 0.0086 relative to reference IL-3 | B6
20 | 0.0022 relative to reference IL-3 | B7
21 | 0.0075 relative to reference IL-3 | B8
22 | 0.011 relative to reference IL-3 | B9
23 | 0.00032 relative to reference IL-3 | B10
24 | 1.2e-05 relative to reference IL-3 | B15
25 | 1e-05 relative to reference IL-3 | B16
26 | 0.4 relative to reference IL-3 | B3

target: T1, IL-3 receptor; experiment: receptor binding assay on cells

Row | binding activity retained | Molecule
27 | 100 percent | B1
28 | 100 percent | B17
29 | 100 percent | B2
30 | 100 percent | B3

target: T1, IL-3 receptor; experiment: competition with radiolabeled IL-3 for binding to cells; NC: No competition was observed for the particular mutein preparation
Experimental: as §1

Row | binding result | Molecule
31 | no binding | B11
32 | no binding | B12
33 | no binding | B13
34 | no binding | B14
35 | no binding | B15
36 | no binding | B16

target: IL-3 receptor (human) (UniProt P26951); experiment: cell-based or functional assay
Sequence (P26951 19-378, chain 1 of 2): as the sequence (P26951 19-378, chain 1 of 2) above
Sequence (P32927 17-897, chain 2 of 2, further chain): as the sequence (P32927 17-897, chain 2 of 2) above

Row | REL. SPEC. BIOLOGICAL ACTIVITY (DNA synthesis of AML193 cells) (relative to reference IL-3) | Molecule
37 | 0.0017 | hIL-3 substitution mutant 1489 (Arg94→Pro94) (from UniProt P08700 20-152) (ligand)
